From publication PMC8266564 come the findings set out here.

This series concerns the target T1, GFP-dRNH1 (catalytically inactive RNase H1) (Homo sapiens, UniProt O60930 28-286, D210N).
T1 sequence: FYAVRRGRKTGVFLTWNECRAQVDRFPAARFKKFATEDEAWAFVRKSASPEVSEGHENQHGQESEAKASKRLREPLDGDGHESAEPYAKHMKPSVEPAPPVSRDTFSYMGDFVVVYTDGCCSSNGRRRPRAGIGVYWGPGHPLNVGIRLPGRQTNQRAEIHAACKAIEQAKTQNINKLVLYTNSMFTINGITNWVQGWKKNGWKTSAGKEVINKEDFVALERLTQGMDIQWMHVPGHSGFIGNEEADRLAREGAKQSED
Nature of the series: EMSA. In general terms: In EMSA bound probe runs differently from free probe, usually more slowly.

B1: 60-bp RNA-DNA hybrid (RNA60/DNA60) (DNA:RNA)
RNA: GUUGUAACGACGGCCAGUGCCAAGUUCGGAUCGACGCUCGACUCUAGAGGAUCCCGGUAC
DNA: GTACCGGGATCCTCTAGAGTCGAGCGTCGATCCGAACTTGGCACTGGCCGTCGTTACAAC
Consider B1, for which the binding result is recorded as “binds”.
